Experimental data: US20230080534A1 (SHANGHAI BIOTROY BIOTECHNIQUE, published 2023)
No end group written: not given here.

Tests used:
[1] = molecular target: T1, human SEMG2 full-length protein (human, UniProt Q02383 24-582, limits assumed); test: biolayer interferometry (ForteBio Blitz or Gator)
T1 construct: also called SEMG2 protein; semenogelin 2
T1 sequence: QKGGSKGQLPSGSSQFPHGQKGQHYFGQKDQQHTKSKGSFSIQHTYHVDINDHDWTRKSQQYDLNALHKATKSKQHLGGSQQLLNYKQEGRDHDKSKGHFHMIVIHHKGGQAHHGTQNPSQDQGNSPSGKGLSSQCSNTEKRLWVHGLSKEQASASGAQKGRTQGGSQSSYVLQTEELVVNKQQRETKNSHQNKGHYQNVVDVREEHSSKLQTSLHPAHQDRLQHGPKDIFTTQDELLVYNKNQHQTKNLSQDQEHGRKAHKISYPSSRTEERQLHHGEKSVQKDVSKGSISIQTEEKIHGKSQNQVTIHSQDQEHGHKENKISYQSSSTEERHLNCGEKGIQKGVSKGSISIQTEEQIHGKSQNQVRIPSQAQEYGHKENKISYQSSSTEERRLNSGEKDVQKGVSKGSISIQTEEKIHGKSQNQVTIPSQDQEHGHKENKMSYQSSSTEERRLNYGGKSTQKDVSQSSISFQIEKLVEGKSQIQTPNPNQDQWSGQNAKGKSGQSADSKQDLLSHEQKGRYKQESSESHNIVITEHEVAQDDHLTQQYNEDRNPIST
Outline: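 KD of antibodies binding human SEMG2 measured by biolayer interferometry, with antibody and SEMG2 in SD buffer. KD derived by binding-curve analysis.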

[2] = molecular target: T1, human SEMG2 full-length protein; test: ELISA, immobilized antigen SEMG2 (1-582)
Source text: (§1) To clearly distinguish the binding epitopes of blocking antibodies (i.e., antibodies that can inhibit the binding between SEMG2 and CD27) and non-blocking antibodies, a corresponding ELISA analysis method was established. […] Anti-mouse or anti-rabbit secondary antibodies were then used to detect the corresponding bound antibodies.

AIEKLVEGKSQIQ = molecular target: T2, AIEKLVEGKSQIQ (not fully specified); test: ELISA, immobilized peptide AIEKLVEGKSQIQ
T2 construct: member of the group m41; the text speaks of glycine substitution, the sheet prints alanine
T2 peptide: AIEKLVEGKSQIQ
Outline: (§2)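 Peptides carrying single amino acid changes are immobilized, and monoclonal antibody binding is then detected by ELISA at OD₄₅₀. The signal indicates how much each residue matters for recognition.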

QAEKLVEGKSQIQ = molecular target: T3, QAEKLVEGKSQIQ (not fully specified); test: ELISA, immobilized peptide QAEKLVEGKSQIQ
T3 construct: member of the group m41; the text speaks of glycine substitution, the sheet prints alanine
T3 peptide: QAEKLVEGKSQIQ
Outline: as §2

QIAKLVEGKSQIQ = molecular target: T4, QIAKLVEGKSQIQ (not fully specified); test: ELISA, immobilized peptide QIAKLVEGKSQIQ
T4 construct: member of the group m41; the text speaks of glycine substitution, the sheet prints alanine
T4 peptide: QIAKLVEGKSQIQ

QIEALVEGKSQIQ = molecular target: T5, QIEALVEGKSQIQ (not fully specified); test: ELISA, immobilized peptide QIEALVEGKSQIQ
T5 construct: member of the group m41; the text speaks of glycine substitution, the sheet prints alanine
T5 peptide: QIEALVEGKSQIQ
Outline: as §2

QIEKAVEGKSQIQ = molecular target: T6, QIEKAVEGKSQIQ (not fully specified); test: ELISA, immobilized peptide QIEKAVEGKSQIQ
T6 construct: alanine at this position
T6 peptide: QIEKAVEGKSQIQ
Outline: as §2

QIEKLAEGKSQIQ = molecular target: T7, QIEKLAEGKSQIQ (not fully specified); test: ELISA, immobilized peptide QIEKLAEGKSQIQ
T7 construct: member of the group m41; the text speaks of glycine substitution, the sheet prints alanine
T7 peptide: QIEKLAEGKSQIQ
Outline: as §2

QIEKLVAGKSQIQ = molecular target: T8, QIEKLVAGKSQIQ (not fully specified); test: ELISA, immobilized peptide QIEKLVAGKSQIQ
T8 construct: member of the group m41; the text speaks of glycine substitution, the sheet prints alanine
T8 peptide: QIEKLVAGKSQIQ
Outline: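 Epitope mapping of blocking monoclonal antibodies by ELISA on the immobilized peptide. Bound antibodies detected with anti-mouse or anti-rabbit secondary antibodies, read as OD₄₅₀ absorbance.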

QIEKLVEAKSQIQ = molecular target: T9, QIEKLVEAKSQIQ; test: ELISA, immobilized peptide QIEKLVEAKSQIQ
T9 construct: member of the group m41; position 504 is glycine in SEMG2 and the sheet prints alanine there
T9 peptide: QIEKLVEAKSQIQ
Outline: as §2

QIEKLVEGASQIQ = molecular target: T10, QIEKLVEGASQIQ (not fully specified); test: ELISA, immobilized peptide QIEKLVEGASQIQ
T10 construct: member of the group m41; the text speaks of glycine substitution, the sheet prints alanine
T10 peptide: QIEKLVEGASQIQ
Outline: as §2

QIEKLVEGKAQIQ = molecular target: T11, QIEKLVEGKAQIQ (not fully specified); test: ELISA, immobilized peptide QIEKLVEGKAQIQ
T11 construct: alanine at this position
T11 peptide: QIEKLVEGKAQIQ
Outline: as §2

QIEKLVEGKSAIQ = molecular target: T12, QIEKLVEGKSAIQ (not fully specified); test: ELISA, immobilized peptide QIEKLVEGKSAIQ
T12 construct: alanine at this position
T12 peptide: QIEKLVEGKSAIQ
Outline: as §2

QIEKLVEGKSQAQ = molecular target: T13, QIEKLVEGKSQAQ (not fully specified); test: ELISA, immobilized peptide QIEKLVEGKSQAQ
T13 construct: member of the group m41; the text speaks of glycine substitution, the sheet prints alanine
T13 peptide: QIEKLVEGKSQAQ
Outline: as §2

QIEKLVEGKSQIA = molecular target: T14, QIEKLVEGKSQIA (not fully specified); test: ELISA, immobilized peptide QIEKLVEGKSQIA
T14 construct: alanine at this position
T14 peptide: QIEKLVEGKSQIA
Outline: as §2

[3] = molecular target: T15, SEMG2(497-509) polypeptide QIEKLVEGKSQIQ (human); test: ELISA, immobilized peptide QIEKLVEGKSQIQ
T15 peptide: QIEKLVEGKSQIQ
Outline: as §2

SEMG2(354-403) fragment = molecular target: T16, SEMG2(354-403) fragment (human); test: ELISA, immobilized antigen SEMG2 (354-403)
T16 peptide: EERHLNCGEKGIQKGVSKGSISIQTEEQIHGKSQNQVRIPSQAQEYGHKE
Source text: as §1

SEMG2(442-453) fragment = molecular target: T17, SEMG2(442-453) fragment (human); test: ELISA, immobilized antigen SEMG2 (442-453)
T17 peptide: IHGKSQNQVTIP
Source text: as §1

[4] = molecular target: T15, SEMG2(497-509) polypeptide QIEKLVEGKSQIQ; test: ELISA, immobilized antigen SEMG2 (497-509)
Source text: as §1

SEMG2(563-574) fragment = molecular target: T18, SEMG2(563-574) fragment (human); test: ELISA, immobilized antigen SEMG2 (563-574)
T18 peptide: VAQDDHLTQQYN
Source text: as §1

[5] = molecular target: T19, BSA-conjugated human SEMG2 (497-509) polypeptide (human, also: coupled to BSA, site not given here); test: ELISA on BSA-SEMG2 (497-509), antibody titrated
T19 peptide: QIEKLVEGKSQIQ

[6] = molecular target: T1, human SEMG2 full-length protein; test: ELISA on SEMG2 protein, run beside the humanized antibodies; the EC50 table prints no unit, the axis is log (antibody concentration, nM)
[7] = molecular target: T1, human SEMG2 full-length protein; test: ELISA, plate coated with SEMG2 protein, anti-mouse secondary antibody; the EC50 table prints no unit, the axis is log (antibody concentration, nM)
[8] = molecular target: T19, BSA-conjugated human SEMG2 (497-509) …; test: ELISA, OD450 against antibody concentration (FIG. 21)
[9] = molecular target: T15, SEMG2(497-509) polypeptide QIEKLVEGKSQIQ; test: phage display screening on BSA- and KLH-coupled peptide, ELISA
Source text: Specifically, the preparation of polypeptide antigens and the screening of human natural antibody library were firstly performed. […] ELISA was used to select clones that bind to antigenic epitopes for preliminary screening. Different unique sequences were obtained after sequencing single colonies, sorted according to affinity sorting, and full-length antibodies were constructed from antigen-binding fragments (Fab) with relatively high affinity. The binding ability and blocking function tests were performed after purification, that is, the effect of the antibody on binding between SEMG2 and CD27 was determined by the ELISA experiment.

[10] = molecular target: T1, human SEMG2 full-length protein; test: ELISA on SEMG2; the EC50 table prints no unit, the axis is log (antibody concentration, nM)

B1: MM05 (antibody, IgG1, V domains shown)
VH: QVQLQQPGAELVRPGASVKLSCEASGYTFTSYWMNWVKQRPGQGLEWIGMIDPSDSETHYNQMFKDKATLTVDKSSSTAYMQLSSLTSEDSAVYYCARYLGGKEGSFDYWGQGTTLTVSS
VL: DIVMSQSPSSLAVSAGEKVTMSCKSSQSLLNSRTRKNYLAWYQQKPGQSPKLLIYWASTRESGVPDRFTGSGSGTDFTLTISSVQAEDLAVYYCKQSYSLPWTFGGGTKLEIKR
With B1 the Kd [1] was 5.28 nM, the A450 absorbance [2] was 1.17 and the OD450 absorbance (AIEKLVEGKSQIQ) was 0.638. It also gave an OD450 absorbance (QAEKLVEGKSQIQ) of 0.796, an OD450 absorbance (QIAKLVEGKSQIQ) of 0.728 and an OD450 absorbance (QIEALVEGKSQIQ) of 0.726. The OD450 absorbance (QIEKAVEGKSQIQ) was 0.259, the OD450 absorbance (QIEKLAEGKSQIQ) was 0.558 and the OD450 absorbance (QIEKLVAGKSQIQ) was 0.615. For the same binder, the OD450 absorbance (QIEKLVEAKSQIQ) was 0.723, the OD450 absorbance (QIEKLVEGASQIQ) was 0.852 and the OD450 absorbance (QIEKLVEGKAQIQ) was 0.168. The OD450 absorbance (QIEKLVEGKSAIQ) was 1.26, the OD450 absorbance (QIEKLVEGKSQAQ) was 0.868 and the OD450 absorbance (QIEKLVEGKSQIA) was 1.21. For the same binder, the OD450 absorbance [3] was 1.27, the A450 absorbance (SEMG2(354-403) fragment) was 0.008 and the binding result (SEMG2(354-403) fragment) was “no binding”. For the same binder, the A450 absorbance (SEMG2(442-453) fragment) was 0.009, the binding result (SEMG2(442-453) fragment) was “no binding” and the A450 absorbance [4] was 1.17. For the same binder, the binding result (SEMG2(563-574) fragment) was “no binding”, the “EC50 (read off the curve)” value [5] was ~8 ng/mL and the EC50 [6] was 0.147 nM. For the same binder, the EC50 [7] was 0.535 nM.

B2: H88-93 (antibody, V domains shown)
VH: QITLKESGPTLVKPTQTLTLTCNFSGFSLTTSGVGVAWIRQPPGKALEWLALIYWDDDQRYSPSLKSRLSVTKHTSKDQVVLTMTNVGPVDTATYYCAHLSYGPGWGYYMDVWGNGTMVTVSS
VL: EIVLTQSPGTLSLSPGERASLSCRASQSVRNNYLAWYQQKPGQAPRLLIFGASNRATGIPDTFSGSGSGTDFTLTISRLEPEDFAVYYCQQYGHSPITFGQGTRLEIK
notes: Fully human full-length antibody built from a phage Fab
B2 was tested, and the binding result [8] was “binds”, the Kd [1] was 4.6 nM and the binding result [9] was “binds”. For the same binder, the EC50 [10] was 0.0636 nM.
